According to PMC11361444:

Target: 3XFLAG-ZAPL N658A (human) (UniProt Q7Z2W4)
Assay: co-IP; 3XFLAG-ZAPL and myc-TRIM25 co-transfected into ZAP KO HEK293T cells; lysed in FLAG buffer (100mM Tris HCl pH8.0, 150mM NaCl, 5mM EDTA, 5% glycerol, 0.1% NP-40, 1mM DTT); FLAG beads with lysates at 4°C for 45 min, three washes, immunoblot; densitometry of myc-TRIM25 normalized to FLAG-ZAP pulldown and to WT

Chain of UniProt Q7Z2W4 (Q7Z2W4 whole entry N658A): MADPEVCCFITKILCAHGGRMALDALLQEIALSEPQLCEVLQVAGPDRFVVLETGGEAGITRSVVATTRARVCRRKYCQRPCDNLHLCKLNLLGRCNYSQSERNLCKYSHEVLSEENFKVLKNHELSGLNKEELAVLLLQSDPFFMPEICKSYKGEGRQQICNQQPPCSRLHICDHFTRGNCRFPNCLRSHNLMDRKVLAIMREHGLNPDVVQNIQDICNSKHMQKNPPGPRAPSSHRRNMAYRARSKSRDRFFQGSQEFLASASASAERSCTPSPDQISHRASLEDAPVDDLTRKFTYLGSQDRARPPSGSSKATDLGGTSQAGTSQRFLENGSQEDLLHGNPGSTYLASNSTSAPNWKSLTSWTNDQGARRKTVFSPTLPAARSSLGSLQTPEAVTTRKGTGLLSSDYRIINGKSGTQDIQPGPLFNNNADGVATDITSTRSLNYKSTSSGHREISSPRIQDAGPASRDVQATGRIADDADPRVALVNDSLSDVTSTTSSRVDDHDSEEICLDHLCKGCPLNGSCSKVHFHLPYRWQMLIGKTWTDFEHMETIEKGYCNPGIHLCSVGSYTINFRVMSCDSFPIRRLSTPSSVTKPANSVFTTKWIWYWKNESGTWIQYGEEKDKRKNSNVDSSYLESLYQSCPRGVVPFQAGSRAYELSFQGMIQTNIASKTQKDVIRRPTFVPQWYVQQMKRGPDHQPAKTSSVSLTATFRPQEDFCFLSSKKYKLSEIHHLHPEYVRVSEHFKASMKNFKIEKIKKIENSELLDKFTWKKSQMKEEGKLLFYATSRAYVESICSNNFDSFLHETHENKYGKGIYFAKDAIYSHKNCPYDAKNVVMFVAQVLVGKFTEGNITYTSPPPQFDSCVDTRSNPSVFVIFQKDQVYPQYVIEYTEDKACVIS

myc-TRIM25 immunoprecipitated by FLAG-ZAP, relative to ZAPL WT (x (fold of ZAPL WT)): 1.09
Substance: myc-TRIM25 (tripartite motif containing 25) (from UniProt Q14258 1-630) (natural protein)
